Columns and labels:
[1] = biological target: T1, human prostate-specific membrane antigen (PSMA), full length, on cells (human, UniProt Q04609 1-750); assay: cell-based or functional assay
[2] = biological target: T1, human prostate-specific membrane …; assay: flow cytometry on C4-2B cells (high PSMA), anti-human AF647 detection, four-parameter fit
Method: The affinity of the purified antibodies was also determined on C4-2B, a cell line with high PSMA levels. Briefly, C4-2B cells were washed once with 1×PBS and incubated with 3 mls/T150 flask of cell dissociation buffer until detached, the cells were collected and strained through a […] sieve. Cells were resuspended at 0.5×10e6 cells/mL in staining buffer (BD #554657) and seeded at 25,000 cells/well in V bottom plate (Corning 3894). To each well, 50 μl of Ab 4-fold serially diluted in staining buffer from 120 nM (60 nM final) were added at 2× final concentration. Control mAbs were added at 2 μg/ml, 1 μg/ml final (controls were: —secondary only and isotype control). All primary antibodies were incubated with the cells for 60 min at 4° C. After the primary incubation, 100 μl staining buffer were added to all wells and the cells were washed by pelleting by centrifugation at 300×g 5 min and buffer removed by flicking the plate. Then cells were similarly washed again with 200 μl staining buffer. […] After 30 minutes incubation at 4° C., the cells were washed as described above with 150 ul staining buffer, followed by a final wash with 200 ul running buffer (Running buffer is staining buffer plus 1 mM EDTA and 0.1% pluronic acid). Cells were resuspended in 30 ul/well running buffer with 1:1000 Sytox Blue viability stain (Invitrogen #S34857) and stored at 4° C. until read on the flow cytometer. Plates were read on an IntelliCyt IQue 3 instrument. Briefly, cells were gated on live cells, then populations were gated on singlets. Antibody binding was assessed by AF647 fluorescence at 647 nm. Data was analyzed in GeneData Screener with signal/background AF647 fluorescence plotted against antibody concentration.

[3] = biological target: T2, PSMW39, human PSMA ECD (Lys44-Ala750), N-6xHis (human, UniProt Q04609 44-750); assay: SPR (Biacore 8K), antibody captured on goat anti-Fc C1 chip, PSMA ECD as analyte, 1:1 Langmuir fit
T2 construct: Made in Expi-CHO cells; also called PSMW39.002; recombinant human ECD
Method: The binding affinity of purified anti-PSMA antibodies to the recombinant human ECD was determined by surface plasmon resonance (SPR) using a BIACORE 8K instrument. The antibodies were captured on a goat anti-Fc antibody-modified C1 chip and titrated with 3-fold serial dilutions of PSMA antigen spanning concentrations of 1 nM to 11.1 nM. The association and dissociation were monitored for 3 and 15 minutes, respectively, using a flow rate of 50 μL/min. Raw binding data was referenced by subtracting the analyte binding signals from blanks and analyzed using a 1:1 Langmuir binding model using the Biacore Insight evaluation software to obtain the kinetics which were used to calculate the binding affinity.

[4] = biological target: T1, human prostate-specific membrane …; assay: cell-based or functional assay; remark: listed apart in the source

T1 sequence (Q04609 whole entry): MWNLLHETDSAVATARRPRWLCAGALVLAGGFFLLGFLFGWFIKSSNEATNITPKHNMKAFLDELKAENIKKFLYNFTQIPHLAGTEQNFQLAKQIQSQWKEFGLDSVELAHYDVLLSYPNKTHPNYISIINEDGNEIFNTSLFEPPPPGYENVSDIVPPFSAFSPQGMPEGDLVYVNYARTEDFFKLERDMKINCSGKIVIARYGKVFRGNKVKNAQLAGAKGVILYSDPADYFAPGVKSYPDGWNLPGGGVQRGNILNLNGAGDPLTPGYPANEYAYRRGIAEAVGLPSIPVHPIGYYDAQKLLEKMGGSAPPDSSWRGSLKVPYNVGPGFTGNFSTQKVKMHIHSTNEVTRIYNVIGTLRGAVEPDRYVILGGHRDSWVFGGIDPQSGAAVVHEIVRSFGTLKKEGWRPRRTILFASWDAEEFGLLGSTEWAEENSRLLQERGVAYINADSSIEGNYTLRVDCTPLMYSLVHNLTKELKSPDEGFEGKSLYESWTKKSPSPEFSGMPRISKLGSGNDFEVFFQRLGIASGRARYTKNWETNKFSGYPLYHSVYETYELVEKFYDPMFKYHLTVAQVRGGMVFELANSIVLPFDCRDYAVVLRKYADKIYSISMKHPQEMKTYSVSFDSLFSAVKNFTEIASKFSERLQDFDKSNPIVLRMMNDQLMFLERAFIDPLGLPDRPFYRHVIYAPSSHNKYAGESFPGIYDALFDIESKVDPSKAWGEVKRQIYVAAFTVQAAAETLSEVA
T2 sequence (Q04609 other isoform, or with tags, fused parts or gaps): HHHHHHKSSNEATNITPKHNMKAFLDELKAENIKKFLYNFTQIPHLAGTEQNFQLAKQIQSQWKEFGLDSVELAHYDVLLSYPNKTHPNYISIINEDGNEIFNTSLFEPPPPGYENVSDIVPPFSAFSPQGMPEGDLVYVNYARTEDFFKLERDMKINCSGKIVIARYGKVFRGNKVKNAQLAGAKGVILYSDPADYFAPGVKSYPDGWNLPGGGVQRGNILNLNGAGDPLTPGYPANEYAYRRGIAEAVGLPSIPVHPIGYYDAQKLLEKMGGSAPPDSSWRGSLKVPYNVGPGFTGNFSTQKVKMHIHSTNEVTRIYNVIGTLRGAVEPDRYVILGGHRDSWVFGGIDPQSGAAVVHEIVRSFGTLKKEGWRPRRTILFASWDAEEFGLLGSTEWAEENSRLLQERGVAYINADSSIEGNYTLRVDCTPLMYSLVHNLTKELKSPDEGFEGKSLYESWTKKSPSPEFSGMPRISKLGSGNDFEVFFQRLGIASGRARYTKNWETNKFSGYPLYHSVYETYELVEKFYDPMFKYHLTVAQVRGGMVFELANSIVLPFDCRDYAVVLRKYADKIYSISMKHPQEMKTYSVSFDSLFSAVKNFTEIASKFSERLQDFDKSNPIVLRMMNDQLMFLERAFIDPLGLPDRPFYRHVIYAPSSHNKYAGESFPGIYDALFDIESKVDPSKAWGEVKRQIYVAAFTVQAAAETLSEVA

| Binder | EC50 [2] [nM] | Kd [3] [nM] | koff [3] [s⁻¹] | kon [3] [M⁻¹ s⁻¹] | also measured |
| --- | --- | --- | --- | --- | --- |
| PSMB1183 conjugated to maleimide-PEG4-vcPAB-MMAF (antibody, human IgG1, lambda, V domains shown, maleimide-PEG4-vcPAB-MMAF and N-ethyl maleimide on reduced cysteines (sites not given)) VH: QVQLQESGPGLVKSSETLSLTCTVSGGSISSYYWNWIRQPAGKGLEWIGRIYSSGNTDYNPSLKSRVTMSVDTSKNQFSLKLISVTAADTAVYYCARGRGANVGLFDYWGQGTLVTVSS VL: QSALTQPPSVSGAPGQRVTISCTGSNSNIGANYDVHWYQHLPGTAPKLLIYGNINRPLGVPDRFSGSRSGTSASLAITGLQAEDEADYYCQSYDFSLSGSVFGVGTKLTVLG | – | – | – | – | C4-2B IC50 (cytotoxicity, vcMMAF ADC, DAR 3.6, 72 h) [1]: 0.03 nM |
| PSMB1183 (antibody, human IgG1, lambda, V domains shown, huIgG1, lambda light chain) VH: QVQLQESGPGLVKSSETLSLTCTVSGGSISSYYWNWIRQPAGKGLEWIGRIYSSGNTDYNPSLKSRVTMSVDTSKNQFSLKLISVTAADTAVYYCARGRGANVGLFDYWGQGTLVTVSS VL: QSALTQPPSVSGAPGQRVTISCTGSNSNIGANYDVHWYQHLPGTAPKLLIYGNINRPLGVPDRFSGSRSGTSASLAITGLQAEDEADYYCQSYDFSLSGSVFGVGTKLTVLG | 0.156 | 0.928 | 0.000401 | 432000 | – |
| PSMB1183 conjugated to MC-GGFG-DX8951 (antibody, human IgG1, lambda, V domains shown, MC-GGFG-DX8951 on reduced cysteines, DAR 8.0) VH: QVQLQESGPGLVKSSETLSLTCTVSGGSISSYYWNWIRQPAGKGLEWIGRIYSSGNTDYNPSLKSRVTMSVDTSKNQFSLKLISVTAADTAVYYCARGRGANVGLFDYWGQGTLVTVSS VL: QSALTQPPSVSGAPGQRVTISCTGSNSNIGANYDVHWYQHLPGTAPKLLIYGNINRPLGVPDRFSGSRSGTSASLAITGLQAEDEADYYCQSYDFSLSGSVFGVGTKLTVLG | – | – | – | – | IC50 (cytotoxicity on 22RV1 cells, DX8951 ADC, DAR 8, 6 d) [4]: 0.7 nM |
| PSMB1154 conjugated to MC-GGFG-DX8951 (antibody, human IgG1, lambda, V domains shown, MC-GGFG-DX8951 on reduced cysteines, DAR 8.0) VH: EVQLVESGGGEVQPGRSLRLTCAVSGFTLSRYGMHWVRQAPGKGLEWAALISYDGSNRYYADSVKGRFTISRDNSKNTVFLQMNSLRAEDTAVYYCARERESSGWFEGYFDYWGQGTTVTVSS VL: QLVLTQPPSVSVAPGQTARITCGGNNIGSKSVHWYQQKPGQAPVLVVYDNSDRPSGIPERFSGSNSGNTATLTISRVEVGDEADYYCQVWDSSSDHVVFGGGTKLTVLG | – | – | – | – | IC50 (cytotoxicity on 22RV1 cells, DX8951 ADC, DAR 8, 6 d) [4]: 0.8 nM |
| PSMB1154 conjugated to maleimide-PEG4-vcPAB-MMAF (antibody, human IgG1, lambda, V domains shown, maleimide-PEG4-vcPAB-MMAF and N-ethyl maleimide on reduced cysteines (sites not given)) VH: EVQLVESGGGEVQPGRSLRLTCAVSGFTLSRYGMHWVRQAPGKGLEWAALISYDGSNRYYADSVKGRFTISRDNSKNTVFLQMNSLRAEDTAVYYCARERESSGWFEGYFDYWGQGTTVTVSS VL: QLVLTQPPSVSVAPGQTARITCGGNNIGSKSVHWYQQKPGQAPVLVVYDNSDRPSGIPERFSGSNSGNTATLTISRVEVGDEADYYCQVWDSSSDHVVFGGGTKLTVLG | – | – | – | – | C4-2B IC50 (cytotoxicity, vcMMAF ADC, DAR 4, 72 h) [1]: 0.03 nM |
| PSMB1154 (antibody, human IgG1, lambda, V domains shown, huIgG1, lambda light chain) VH: EVQLVESGGGEVQPGRSLRLTCAVSGFTLSRYGMHWVRQAPGKGLEWAALISYDGSNRYYADSVKGRFTISRDNSKNTVFLQMNSLRAEDTAVYYCARERESSGWFEGYFDYWGQGTTVTVSS VL: QLVLTQPPSVSVAPGQTARITCGGNNIGSKSVHWYQQKPGQAPVLVVYDNSDRPSGIPERFSGSNSGNTATLTISRVEVGDEADYYCQVWDSSSDHVVFGGGTKLTVLG | 0.306 | 1.09 | 0.00019 | 174000 | – |
| PSMB1157 conjugated to maleimide-PEG4-vcPAB-MMAF (antibody, human IgG1, lambda, V domains shown, maleimide-PEG4-vcPAB-MMAF and N-ethyl maleimide on reduced cysteines (sites not given)) VH: EVQLVESGGGVVQPGRSLRLSCAASVRTFSGYGMHWVRQVPGKGLEWVAVISYDGSNRYYADSVKGRFTISRDNSKNTLYLQMNSLRTEDTAVYYCARDGNWGSLDLYFDLWGRGTLVTVSS VL: QSVLTQPPSVSGAPGQRVTISCTGSSSNIGADYDVHWYQQLPGTAPKLLIYVNNNRPSGVPDRFSGSRSGTSASLAITGLQADDEADYYCQSYDNTLSGVVFGGGTKLTVLG | – | – | – | – | C4-2B IC50 (cytotoxicity, vcMMAF ADC, DAR 3.6, 72 h) [1]: 0.03 nM |
| PSMB1157 (antibody, human IgG1, lambda, V domains shown, huIgG1, lambda light chain) VH: EVQLVESGGGVVQPGRSLRLSCAASVRTFSGYGMHWVRQVPGKGLEWVAVISYDGSNRYYADSVKGRFTISRDNSKNTLYLQMNSLRTEDTAVYYCARDGNWGSLDLYFDLWGRGTLVTVSS VL: QSVLTQPPSVSGAPGQRVTISCTGSSSNIGADYDVHWYQQLPGTAPKLLIYVNNNRPSGVPDRFSGSRSGTSASLAITGLQADDEADYYCQSYDNTLSGVVFGGGTKLTVLG | 0.381 | 1.42 | 0.000274 | 194000 | – |
| PSMB1157 conjugated to MC-GGFG-DX8951 (antibody, human IgG1, lambda, V domains shown, MC-GGFG-DX8951 on reduced cysteines, DAR 8.0) VH: EVQLVESGGGVVQPGRSLRLSCAASVRTFSGYGMHWVRQVPGKGLEWVAVISYDGSNRYYADSVKGRFTISRDNSKNTLYLQMNSLRTEDTAVYYCARDGNWGSLDLYFDLWGRGTLVTVSS VL: QSVLTQPPSVSGAPGQRVTISCTGSSSNIGADYDVHWYQQLPGTAPKLLIYVNNNRPSGVPDRFSGSRSGTSASLAITGLQADDEADYYCQSYDNTLSGVVFGGGTKLTVLG | – | – | – | – | IC50 (cytotoxicity on 22RV1 cells, DX8951 ADC, DAR 8, 6 d) [4]: 2.2 nM |
| PSMB1156 conjugated to maleimide-PEG4-vcPAB-MMAF (antibody, human IgG1, lambda, V domains shown, maleimide-PEG4-vcPAB-MMAF and N-ethyl maleimide on reduced cysteines (sites not given)) VH: EVQLVESGGGVVQPGRSLRLSCAASGFTFTSYGMHWVRQAPGKGLEWVAVISYDGSNKYYADSVKGRFTISRDNSKNTLYLQMNSLRAEDTAVYYCAREHYDSSGYYHGYYGMDVWGQGTTVTVSS VL: not shown | – | – | – | – | C4-2B IC50 (cytotoxicity, vcMMAF ADC, DAR 2.9, 72 h) [1]: 0.04 nM |
| PSMB1156 (antibody, human IgG1, lambda, V domains shown, huIgG1, lambda light chain) VH: EVQLVESGGGVVQPGRSLRLSCAASGFTFTSYGMHWVRQAPGKGLEWVAVISYDGSNKYYADSVKGRFTISRDNSKNTLYLQMNSLRAEDTAVYYCAREHYDSSGYYHGYYGMDVWGQGTTVTVSS VL: not shown | 0.633 | 0.548 | 0.000168 | 306000 | – |
| PSMB1156 conjugated to MC-GGFG-DX8951 (antibody, human IgG1, lambda, V domains shown, MC-GGFG-DX8951 on reduced cysteines, DAR 8.0) VH: EVQLVESGGGVVQPGRSLRLSCAASGFTFTSYGMHWVRQAPGKGLEWVAVISYDGSNKYYADSVKGRFTISRDNSKNTLYLQMNSLRAEDTAVYYCAREHYDSSGYYHGYYGMDVWGQGTTVTVSS VL: not shown | – | – | – | – | IC50 (cytotoxicity on 22RV1 cells, DX8951 ADC, DAR 8, 6 d) [4]: 1.4 nM |
| PSMB1195 (antibody, human IgG1, kappa, V domains shown, huIgG1, kappa light chain) VH: EVQLVESGGGLVKPGGSLRLSCAASGFTFSSYSLNWVRQAPGKGLEWVSSISSSSSYISYADAVKGRFTISRDNAKNSLYLQMNSLRAEDTAVYYCARDRGFLEDYYYYYGMDVWGQGTTVTVSS VL: DIVMTQSPSSVSASVGDRVTITCRASQGISNWLAWYQQKPGKAPKLLIYVASSLQSGVPSRFSGSGSGTDFSLTISSLQPEDFATYYCQQAYSFPLTFGGGTKVEIKR | 13.8 | 9.45 | 0.000101 | 10700 | – |
| PSMB1088 (antibody, human IgG1, kappa, V domains shown, huIgG1, kappa light chain) VH: EVQLVESGGGVVQPGRSLRLSCAASGFTFSSYDMHWVRQAPGKGLEWVTVISFDGSNKYYVDSVKGRFTISRDNSKNTLYLQMNSLRAEDTAVYYCARTYYDILTGYSHYSYGMDVWGQGTTVTVSS VL: EIVMTQSPSSLSASVGDRVTITCRASQGISNYLAWYQQKPGKVPKLLIYATSTLQSGVPSRFSGSGSGTDFILTISSLQPEDVANYYCQKYNSAPFTFGPGTKVEIKR | 12.4 | 0.97 | 2.85e-05 | 29400 | – |
| PSMB1113 (antibody, human IgG1, kappa, V domains shown, huIgG1, kappa light chain) VH: EVQLVESGGGLVKPGGSLRLSCAASGFTLSIYSMNWVRQAPGKGLEWVSSISSSSSYIFYADSVKGRFTISRDNAKNSLFLQMNSLRAEDTAVYYCARSSYGADYWGQGTLVTVSS VL: EIVMTQSPSSLSASVGDRVTITCRASQDITNFLAWYQQKPGKVPKLLIYTASTLQSGVPSRFSGSGSGTDFTLTISSLQPEDVATYYCQKYNSAPLTFGGGTKLEIKR | 2.52 | 1.16 | 6.65e-05 | 57300 | – |
| PSMB1098 (antibody, human IgG1, kappa, V domains shown, huIgG1, kappa light chain) VH: QVQLVESGGGVVQPGRSLRLSCAASGFTFSTYGMHWVRQAPGKGLEWVAFISYDGSNKYYADSVKGRFTISRDNSKHTLYLQMNSLRAEDTAVYYCAGRDNLRFLEWFMDVWGQGTTVTVSS VL: not shown | 2.46 | 0.54 | 2.85e-05 | 52700 | – |

Source: US20230122503A1 (Janssen / Centocor, published 2023)
